Laboratory results reported in patent publication EP1847600A1, “Specific protease for inactivation of human tumour necrosis factor-alpha” (Direvo Biotech AG, priority 2006, dated 2007).

How the values were obtained:
transmembrane TNF-alpha = target: T1, transmembrane TNF-alpha (Homo sapiens, UniProt P01375, DEL77-88); assay: Membrane-bound TNF-alpha assay: cell line expressing non-cleavable TNF plus reporter cells, apoptosis read-out; type: cell-based; settings: incubation at different concentrations for 4 h, then reporter cell line added
T1 construct: The transmembrane TNF induces apoptosis in these TNF-susceptible cells; expressed in transfected cells

[1] = test system: human TNF-alpha transgenic mouse model of arthritis; assay: Efficacy in human TNF-alpha transgenic mouse model of arthritis (Tg197); type: in vivo; settings: Tg197 mice, six weeks old, established disease; 50 mg/kg intraperitoneally three times per week for five weeks
Experimental: (§1) • Figure 1: Mass spectrometric verification of the proteolytic cleavage site of TNF-alpha. TNF-alpha was digested at a concentration of 1 mg/ml with protease variant E for 1 h at 37 °C in PBS buffer. The short fragment of the cleavage reaction was isolated on a C18-reversed phase HPLC-column and the collected fraction electrosprayed into the orifice of the ion-trap mass spectrometer. • Figure 2: Deconvoluted mass spectrometric analysis. The small cleavage product has been isolated and the determined mass represents the first 32 amino acids of SEQ ID NO: 11, confirming the targeted cleavage site. • Figure 3: Inactivation of recombinant human TNF-alpha activity by a panel of variants in a cell-based caspase assay. […] Detection of hTNFα-induced caspase activation was measured by a luminescence based read-out. […] (A) depicts maximal detected inactivation of hTNFα; (B) depicts dose dependency of the effects of the hTNFα specific protease. • Figure 4: Effect of pegylation on activity. […] The activity of the resulting pegylated protease was assessed against a recombinant hTNFα (A) or by a caspase assay that measures levels of remaining TNF-alpha activity following digestion of the cytokine by the protease (B). […] Cleavage is assessed by following the changes in the fluorescent signal. […] Efficacy was determined by using a standard clinical scoring system for ankle joint inflammation. […]

hTNFα = hTNFα (Homo sapiens, UniProt P01375); assay: TNF-alpha dependent cell-based caspase assay (Caspase-Glo 3/7) on WEHI 13VAR cells; parameters: species or system mouse; settings: 20 kDa PEG, protease 50 and 100 µg/ml, hTNFα 1 ng/ml, 4 h, 37 °C
Experimental: as §1

synthetic peptide = assay: Activity assay of pegylated versus non-pegylated protease against a synthetic peptide (Fig. 4A); type: biochemical; settings: 20 kDa PEG; synthetic peptide / recombinant hTNFα
Experimental: as §1

Chain of hTNFα (P01375 77-233 limits assumed): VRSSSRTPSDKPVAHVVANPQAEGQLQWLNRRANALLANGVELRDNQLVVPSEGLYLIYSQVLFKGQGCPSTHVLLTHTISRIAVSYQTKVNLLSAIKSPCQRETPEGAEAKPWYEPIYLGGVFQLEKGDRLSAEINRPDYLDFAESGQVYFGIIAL
T1 sequence (P01375 with tags, fused parts or gaps DEL77-88): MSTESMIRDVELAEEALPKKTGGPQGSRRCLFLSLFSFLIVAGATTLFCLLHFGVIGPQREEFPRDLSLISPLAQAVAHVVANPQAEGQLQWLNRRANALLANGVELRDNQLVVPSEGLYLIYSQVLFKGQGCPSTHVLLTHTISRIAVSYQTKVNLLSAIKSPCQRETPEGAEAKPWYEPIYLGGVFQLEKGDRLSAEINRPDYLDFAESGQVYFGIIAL

inactivation of transmembrane TNF-alpha (inhibition of apoptosis of reporter cells) (transmembrane TNF-alpha)	remaining TNF-alpha activity after digestion, pegylated compared with non-pegylated variant (Fig. 4B) (hTNFα)	Molecule	clinical score for ankle joint inflammation (arthritis score 0 to 3) [1]	activity of pegylated protease compared with non-pegylated variant (Fig. 4A) (synthetic peptide)
do not inhibit apoptosis	–	pegylated variant G: variant G pegylated with 20 kD methoxy-poly(ethyleneglycol) derivative on lysine residues (conjugate) IVGGYDCEENSVPYHVSLNSDSNSTTICGGALINEQWVVTAGHCYSFLPLDKSRIQVRLGVHSTGALEGNEQIINAAKIIRHPQYDWKTLNNDIMLIKLSSPAVINAHVSTISLPTAPPATGTKCLISGWGNSKDPYKPSSGPSTADYPGEVQCLDAPVLSQTKCEASYPGKITSNMFCAGFLEGGKDSCQGDSGGPVVHNGQLQGVVSWGEGCAQKNKPGVYTNVYNYVEWIQDTIAANS	–	–
–	slight reduction in specific activity	pegylated variant E: Variant E modified by chemical attachment of 20 kDa poly(ethyleneglycol) (conjugate) IVGGYDCEENSVPYHVSLNSGSNSTTICGGALINEQWVVTAGHCYAFFPADKSRIQVRLGVHSTGALEGNEQIINAAKIIRHPQYDWKTLNNDIMLIKLSSPAVINAHVSTISLPTAPPATGTKCLISGWGNSKDPYKPSSRADYPGEVQCLDAPVLSQTKCEASYPGKITSNMFCAGFLEGGKDSCQGDSGGPVVHNGQLQGVVSWGEGCAQKNKPGVYTNVYNYVEWIQDTIAANS	Efficacy of pegylated TNF-alpha specific protease variant E is demonstrated	slight reduction in specific activity
